# Measurements from PMC7048932, “Examining sterically demanding lysine analogs for histone lysine methyltransferase catalysis” (Scientific Reports, 2020).
# T1: SETD7 (human) (UniProt Q8WTS6)
# T1 sequence: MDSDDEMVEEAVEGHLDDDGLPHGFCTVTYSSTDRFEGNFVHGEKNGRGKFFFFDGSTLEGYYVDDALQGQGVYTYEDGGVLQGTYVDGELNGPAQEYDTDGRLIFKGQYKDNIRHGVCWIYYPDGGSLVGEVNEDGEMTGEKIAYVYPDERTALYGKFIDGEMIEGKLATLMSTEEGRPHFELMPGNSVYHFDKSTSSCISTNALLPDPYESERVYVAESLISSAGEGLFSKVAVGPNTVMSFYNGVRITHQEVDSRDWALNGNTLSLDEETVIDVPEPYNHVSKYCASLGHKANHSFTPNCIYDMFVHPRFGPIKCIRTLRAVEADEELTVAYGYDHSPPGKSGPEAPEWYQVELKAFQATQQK
# Assays:
# SETD7 (human) = biological target: T1, SETD7 (human)
# [1] = substrate: C[C@H](N)C(=O)N[C@@H](CCCNC(=N)N)C(=O)N[C@H](C(=O)N[C@@H](CCCCN)C(=O)N[C@@H](CCC(N)=O)C(=O)N[C@H](C(=O)N[C@@H](C)C(=O)N[C@@H](CCCNC(=N)N)C(=O)N[C@@H](CCC1CC1N)C(=O)N[C@@H](CO)C(=O)N[C@H](C(=O)NCC(=O)NCC(=O)N[C@@H](CCCCN)C(=O)N[C@@H](C)C(=O)O)[C@@H](C)O)[C@@H](C)O)[C@@H](C)O; experiment: Enzyme kinetics of G9a-catalyzed methylation (MALDI-TOF MS); type: biochemical, human; details: other: G9a-catalyzed methylation, MALDI-TOF MS assay; pH 8.0; 37.0 °C
# Procedure: To establish the substrate efficiency of lysine- and KCP-containing histone peptides, we carried out enzyme kinetics analysis, employing the MALDI-TOF MS assays[22].
# MALDI-MS methyltransferases activity experiments were performed using a Bruker instrument in the reflectron positive mode. For regular methyltransferase standard conditions experiment which carried out in 30 µL total volume, the mixture contains peptide (100 µM), SAM (200 µM), SETD8 or SETD7 (2 µM), in assay buffer 50 mM Tris at optimal pH 8.0. In case of G9a and GLP, similar conditions were used, except (500 µM) of SAM was added to the reaction mixture. Samples were incubated in an Eppendorf vial 1.5 mL using thermomixer for 1 h at 37 °C. A 5 µL aliquot of the solution was mixed with 5 µL of MeOH, after which 5 µL of this mixture was mixed with 5 µL of α-cyano-4-hydroxycinamic acid matrix (CHCA, 5 mg/mL in 125:125 µL acetonitrile/water). The spots were placed on a stainless steel MALDI plate (MS 96 target ground steel BC of Bruker, Germany). The mass corresponding to one monomethylation observed as +14 Da, dimethylation observed as +28 Da and trimethylation observed as +42 Da. The enzymatic activity was determined by taking the peak areas of each methylation state, including all isotopes and adducts, and was annotated using FlexAnalysis software (Bruker Daltonics, Germany). […] Methylated peptide substrates were repeated five times and the unmethylated substrates were triplicated.
# G9a (human) = G9a (human) (UniProt Q96KQ7)
# GLP (human) = GLP (human) (UniProt Q9H9B1)
# GLP (human), sequence (Q9H9B1 whole entry): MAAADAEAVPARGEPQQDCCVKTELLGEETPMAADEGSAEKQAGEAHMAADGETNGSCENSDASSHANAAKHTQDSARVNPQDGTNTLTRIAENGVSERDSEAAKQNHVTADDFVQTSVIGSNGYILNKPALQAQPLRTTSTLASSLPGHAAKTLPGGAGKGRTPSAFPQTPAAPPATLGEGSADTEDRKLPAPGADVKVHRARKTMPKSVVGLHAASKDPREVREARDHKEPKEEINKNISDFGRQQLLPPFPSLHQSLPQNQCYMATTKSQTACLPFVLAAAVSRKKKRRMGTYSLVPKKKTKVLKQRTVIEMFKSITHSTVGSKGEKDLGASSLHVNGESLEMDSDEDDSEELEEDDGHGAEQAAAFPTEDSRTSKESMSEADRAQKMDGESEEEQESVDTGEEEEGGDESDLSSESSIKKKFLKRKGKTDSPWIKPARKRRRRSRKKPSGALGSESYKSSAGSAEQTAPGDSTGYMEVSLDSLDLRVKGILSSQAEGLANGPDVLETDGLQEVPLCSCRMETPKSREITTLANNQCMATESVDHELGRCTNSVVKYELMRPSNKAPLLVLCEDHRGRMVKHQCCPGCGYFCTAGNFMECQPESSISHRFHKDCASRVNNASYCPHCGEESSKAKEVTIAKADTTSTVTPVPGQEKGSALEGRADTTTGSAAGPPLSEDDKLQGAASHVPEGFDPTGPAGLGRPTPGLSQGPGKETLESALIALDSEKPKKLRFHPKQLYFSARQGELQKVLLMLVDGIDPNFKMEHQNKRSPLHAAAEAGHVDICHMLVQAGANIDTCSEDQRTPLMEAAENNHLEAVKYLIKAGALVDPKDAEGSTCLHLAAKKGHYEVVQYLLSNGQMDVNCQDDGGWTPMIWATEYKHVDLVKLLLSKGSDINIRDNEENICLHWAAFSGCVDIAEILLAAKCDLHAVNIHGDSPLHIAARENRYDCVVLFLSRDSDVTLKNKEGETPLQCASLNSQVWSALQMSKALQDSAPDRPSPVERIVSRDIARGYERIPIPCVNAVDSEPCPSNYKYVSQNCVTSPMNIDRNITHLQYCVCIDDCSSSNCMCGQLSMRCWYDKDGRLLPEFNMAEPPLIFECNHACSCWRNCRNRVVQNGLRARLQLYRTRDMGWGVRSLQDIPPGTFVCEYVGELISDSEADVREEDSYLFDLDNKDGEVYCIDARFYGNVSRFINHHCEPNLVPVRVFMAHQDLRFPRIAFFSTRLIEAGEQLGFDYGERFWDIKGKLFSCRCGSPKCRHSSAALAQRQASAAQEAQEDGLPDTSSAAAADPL
binder,measurement,setting,value
ARTYQTARKSTGGKA [H3K4 analog histone peptide with tyrosine (Y) at position 4],"IC50 of inhibition of SETD7 (100 nM) methylation of a 21-mer H3 peptide (residues 1–21, 5 µM) with SAM (20 µM), MALDI-TOF MS",SETD7 (human),> 100 µM
"G9a (Homo sapiens) (protein, His6 (N); made in house; host or cells: E. coli BL21 (DE3)pLysS-rosetta) MAAAAGAAAAAAAEGEAPAEMGALLLEKETRGATERVHGSLGDTPRSEETLPKATPDSLEPAGPSSPASVTVTVGDEGADTPVGATPLIGDESENLEGDGDLRGGRILLGHATKSFPSSPSKGGSCPSRAKMSMTGAGKSPPSVQSLAMRLLSMPGAQGAAAAGSEPPPATTSPEGQPKVHRARKTMSKPGNGQPPVPEKRPPEIQHFRMSDDVHSLGKVTSDLAKRRKLNSGGGLSEELGSARRSGEVTLTKGDPGSLEEWETVVGDDFSLYYDSYSVDERVDSDSKSEVEALTEQLSEEEEEEEEEEEEEEEEEEEEEEEEDEESGNQSDRSGSSGRRKAKKKWRKDSPWVKPSRKRRKREPPRAKEPRGVNGVGSSGPSEYMEVPLGSLELPSEGTLSPNHAGVSNDTSSLETERGFEELPLCSCRMEAPKIDRISERAGHKCMATESVDGELSGCNAAILKRETMRPSSRVALMVLCETHRARMVKHHCCPGCGYFCTAGTFLECHPDFRVAHRFHKACVSQLNGMVFCPHCGEDASEAQEVTIPRGDGVTPPAGTAAPAPPPLSQDVPGRADTSQPSARMRGHGEPRRPPCDPLADTIDSSGPSLTLPNGGCLSAVGLPLGPGREALEKALVIQESERRKKLRFHPRQLYLSVKQGELQKVILMLLDNLDPNFQSDQQSKRTPLHAAAQKGSVEICHVLLQAGANINAVDKQQRTPLMEAVVNNHLEVARYMVQRGGCVYSKEEDGSTCLHHAAKIGNLEMVSLLLSTGQVDVNAQDSGGWTPIIWAAEHKHIEVIRMLLTRGADVTLTDNEENICLHWASFTGSAAIAEVLLNARCDLHAVNYHGDTPLHIAARESYHDCVLLFLSRGANPELRNKEGDTAWDLTPERSDVWFALQLNRKLRLGVGNRAIRTEKIICRDVARGYENVPIPCVNGVDGEPCPEDYKYISENCETSTMNIDRNITHLQHCTCVDDCSSSNCLCGQLSIRCWYDKDGRLLQEFNKIEPPLIFECNQACSCWRNCKNRVVQSGIKVRLQLYRTAKMGWGVRALQTIPQGTFICEYVGELISDAEADVREDDSYLFDLDNKDGEVYCIDARYYGNISRFINHLCDPNIIPVRVFMLHQDLRFPRIAFFSSRDIRTGEELGFDYGDRFWDIKSKYFTCQCGSEKCKHSAEAIALEQSRLARLDPHPELLPELGSLPPVNT",Km,[1],22.6 ± 5.0 µM
same,kcat,[1],0.0463 ± 0.0005 s⁻¹
same,kcat/Km,[1],2070 M⁻¹ s⁻¹
ARTKQTARYSTGGKA [H3Y9 histone peptide],"IC50 of inhibition of G9a (100 nM) methylation of a 21-mer H3 peptide (residues 1–21, 5 µM) with SAM (20 µM), MALDI-TOF MS",G9a (human),> 100 µM
same,"IC50 of inhibition of GLP (100 nM) methylation of a 21-mer H3 peptide (residues 1–21, 5 µM) with SAM (20 µM), MALDI-TOF MS",GLP (human),> 100 µM
